Data reported in US6361968.

Key:
P16220 = experiment: thermal melt, homodimerization (FIG. 3)
[1] = CD thermal melts, homodimer
P05412 = experiment: thermal melt, homodimer (FIG. 4)

B1: CREB (unmodified) (protein)
chain: MASSPALPTQPAEEAARKREVRLMKNREAARECRRKKKEYVKCLENRVAVLENQNKTLIEELKALKDLYCHKSD
For B1, the Tm (P16220) was “Tm=47 °C”.

B2: C/EBP bZIP domain (GCN4-C/EBP chimeric protein) (protein)
chain: SEYQPSLFALNPMGFSPLDGSKSTNENVSASTSTAKPMVGQLIFDKFIKTEEDPGKAKKSVDKNSNEYRVRRERNNIAVRKSRDKAKQRNVETQQKVLELTSDNDRLRKRVEQLSRELDTLRGIFRQLPESSLVKAMGNCA
In the case of B2, the “Tm decrease in 50 mM KCl against 150 mM KCl” value [1] is reported as “less stable by 4 °C in 50 mM KCl compared with 150 mM KCl”.

B3: c-Jun (unmodified) (protein)
chain: PLSPIDMESQERIKAERKRMRNRIAASKCRKRKLERIARLEEKVKTLKAQNSELASTANMLREQVAQLKQKVMNHVNSGCQLMLTQQLQTF
With B3 the Tm (P05412) was “homodimerization of unmodified c-Jun had a melting temperature of 29.4 °C”.
